From publication PMC9459147, “Targeting the Cbl-b-Notch1 axis as a novel immunotherapeutic strategy to boost CD8+ T-cell responses” (Frontiers in Immunology, 2022)

Biological target: T1, UBE2D2(C85K)-Ub-FL-BODIPY (human | , UniProt P62837 1-147; P0CG48 1-76, C85K, ubiquitinated in vitro; BODIPY labelled in vitro (position not given))
T1 construct: UBE2D2 ubiquitin-conjugating enzyme, human, with C85K; ubiquitin, conjugated in vitro to UBE2D2(C85K); also called UBE2D2(C85K), ubiquitinated and BODIPY labelled; source: E. coli, purified, ubiquitinated and BODIPY labelled in vitro
Test: AlphaScreen or HTRF; TR-FRET: biotinylated Cbl-b (36-427) with Src-Zap-70 fusion and ATP (enzyme reaction), UBE2D2(C85K)-Ub-FL-BODIPY and Streptavidin-Tb (binding reaction); signal at 520 nm, reference at 620 nm; used to titrate small-molecule Cbl-b inhibitors (NTX-512, NTX-447, NTX-307)
Conditions: both partners purified

B1: recombinant human Cbl-b (aa 36-427), biotinylated (domain or fragment, UniProt Q13191 36-427, looked up)
chain: PKQAAADRRTVEKTWKLMDKVVRLCQNPKLQLKNSPPYILDILPDTYQHLRLILSKYDDNQKLAQLSENEYFKIYIDSLMKKSKRAIRLFKEGKERMYEEQSQDRRNLTKLSLIFSHMLAEIKAIFPNGQFQGDNFRITKADAAEFWRKFFGDKTIVPWKVFRQCLHEVHQISSGLEAMALKSTIDLTCNDYISVFEFDIFTRLFQPWGSILRNWNFLAVTHPGYMAFLTYDEVKARLQKYSTKPGSYIFRLSCTRLGQWAIGYVTGDGNILQTIPHNKPLFQALIDGSREGFYLYPDGRSYNPDLTGLCEPTPHDHIKVTQEQYELYCEMGSTFQLCKICAENDKDVKIEPCGHLMCTSCLTAWQESDGQGCPFCRCEIKGTEPIIVDPFD
modifications: biotinylated in vitro (position not given)
notes: Cbl-b, human, residues 36-427; In the assay it was mixed with a recombinant human Src (aa 254-536)-Zap-70 (aa 281-297) fusion protein and ATP ('enzyme reaction'); Detected through Streptavidin-Tb; also called Cbl-b enzyme; source: E. coli, purified and biotinylated in vitro
  binding result: binds
